In PMC13430412:

Legend:
[1] = target: Strep-tagged Rab7A (Q67L) (human) (UniProt P51149); test: pull-down; Strep-Rab7A(Q67L) and FLAG-tagged VPS13C constructs co-expressed in Expi293F; lysate (buffer A with 1 mM GTP, 2 mM MgCl2) on Strep-Tactin XT resin, eluted with biotin; SDS-PAGE with Coomassie and/or anti-FLAG western blot
[2] = target: Rab7A(Q67L)-6xHis (human) (UniProt P51149); test: liposome co-flotation; purified VPS13C constructs with SUVs (5% DGS-NTA) bearing His-tagged protein, 1 mM GTP, 2 mM Mg2+, room temperature 20 min; OptiPrep gradient, top fraction by SDS-PAGE
Sequence of Rab7A(Q67L)-6xHis (human) (P51149 whole entry Q67L): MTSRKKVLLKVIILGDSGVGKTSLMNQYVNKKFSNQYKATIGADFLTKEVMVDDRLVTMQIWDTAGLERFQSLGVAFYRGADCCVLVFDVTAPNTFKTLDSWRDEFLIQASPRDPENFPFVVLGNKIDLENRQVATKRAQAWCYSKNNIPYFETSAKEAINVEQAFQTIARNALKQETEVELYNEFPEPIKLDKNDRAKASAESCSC

Sequence of Strep-tagged Rab7A (Q67L) (human) (P51149 whole entry Q67L): as above

| Substance | fraction of total overexpressed VPS13 retained [1] | fraction co-floated with SUVs bearing His-tagged Rab7A [2] |
| --- | --- | --- |
| VPS13C-3XFLAG (full-length human VPS13C with a C-terminal 3xFLAG tag), Q709C8 1-3753 | 5% |  |
| VPS13C-ΔATG2C-3xFLAG, Q709C8 1-3753 |  | > 80% |
